Measurements published in patent US20160068860A1, “TRANSGENIC PLANTS” (CONSEJO SUPERIOR DE INVESTIGACIONES CIENTIFICAS (CSIC), priority 2013, published 2016).

Assays:
[1] = tested on: Arabidopsis thaliana plants; experiment: Drought stress under greenhouse conditions; type: in vivo; settings: for survival after drought stress: OE lines, watering resumed at 19-d, scored at 23-d
Procedure: (§1) Plants grown under greenhouse conditions (10 individuals per experiment, three independent experiments) were grown under normal watering conditions for 15 days and then subjected to drought stress by stopping irrigation during 20 days. Next, watering was resumed and survival rate was calculated after 3 days by counting the percentage of plants that had more than four green leaves. Photographs were taken at the start of the experiment (day 0), after 16 and 19 days of drought, and 3 days after rewatering. Shoot-growth and water-loss were measured as follows. Quantification of shoot-growth was performed at 2, 5, 7 and 9 d after stopping irrigation (day 0) by measuring the maximum rosette radius of the plants. Water-loss measurements were done in two leaves from each plant that were detached 11 d after the start of the experiment, next weighted, incubated in de-mineralized water for 3 h and weighed again. The difference in weight was considered as water loss and related to the initial fresh weight (μl H2O/g FW).

[2] = tested on: PP2CA; experiment: BiFC assay with PP2CA in N. benthamiana leaves; type: cell-based; settings: no exogenous ABA
Procedure: Experiments were performed basically as described by Voinnet et al., (2003). The different binary vectors described above where introduced into Agrobacterium tumefaciens C58C1 (pGV2260) (Deblaere et al., 1985) by electroporation and transformed cells were selected in LB plates supplemented with kanamycin (50 μg/ml). Then, they were grown in liquid LB medium to late exponential phase and cells were harvested by centrifugation and resuspended in 10 mM morpholinoethanesulphonic (MES) acid-KOH pH 5.6 containing 10 mM MgCl2 and […] acetosyringone to an OD600 nm of 1. These cells were mixed with an equal volume of Agrobacterium C58C1 (pCH32 35S:p19) expressing the silencing suppressor p19 of tomato bushy stunt virus (Voinnet et al., 2003) so that the final density of Agrobacterium solution was about 1. Bacteria were incubated for 3 h at room temperature and then injected into young fully expanded leaves of 4-week-old N. benthamiana plants. Leaves were examined after 3-4 days under a Leica TCS-SL confocal microscope and laser scanning confocal imaging system. Quantification of fluorescent protein signal was done as described (Gampala et al., 2007) using the National Institutes of Health (NIH) Image software ImageJ v1.37. […]

[3] = tested on: Arabidopsis thaliana plants; experiment: Whole-rosette stomatal conductance and transpiration measurements; type: in vivo; settings: basal conditions; for stomatal conductance (Gst) and transpiration versus non-transformed Col: OE plants
Procedure: The Arabidopsis whole-rosette gas exchange measurement device, plant growth practice and custom written program to calculate transpiration and Gst for water vapour have been described previously (Kollist et al. 2007; Vahisalu et al., 2008). For gas-exchange experiments, 25-28-d-old plants (rosette area 6-18 cm2) were used. Until measurements, plants were grown in growth chambers (AR-66LX and AR-22L, Percival Scientific, IA, USA) at 12/12 photoperiod, 23/18° C. temperature, air relative humidity of 70-80% and 150 μmol m-2 s-1 light. During gas exchange measurements, temperature, air relatively humidity, photoperiod and light in the cuvettes were kept as similar as possible to the
values in growth chambers. Photographs of plants were taken before and after the experiment and rosette leaf area was calculated using the NIH software ImageJ 1.37v. Leaf area values for the intermediary experimental period were calculated using linear regression between starting and final leaf area.

[4] = tested on: Arabidopsis thaliana plants; experiment: Water-loss assays of OE lines; type: in vivo; settings: for water loss under drought stress: greenhouse, leaves detached after 11-d without irrigation
Procedure: 2-3 weeks-old seedlings grown in MS plates were used for water-loss assays. Four seedlings per genotype with similar growth, three independent experiments, were submitted to the drying atmosphere of a flow laminar hood. Kinetic analysis of waterloss was performed and represented as the percentage of initial fresh weight loss at each scored time point. Stomatal aperture measurements were done in leaves of 5-week-old plants grown under greenhouse conditions using whole leaf imaging (Chitrakar and Melotto, 2010). Staining of whole leaves with propidium iodide was conducted and the aperture of 30-40 stomata (ratio width/length, two independent experiments) was measured using a Leica TCS-SL confocal microscope.
as §1

[5] = target: T1, PP2CA (clade A protein phosphatase 2C, At3g11410) (Arabidopsis thaliana, UniProt P49598 1-399, limits assumed); experiment: yeast two-hybrid growth assay, absence of ABA; H82R was found combined with V97A
T1 construct: BiFC: PP2CA-YFPN (pSPYNE-35S); also called AtPP2CA
T1 sequence (looked up): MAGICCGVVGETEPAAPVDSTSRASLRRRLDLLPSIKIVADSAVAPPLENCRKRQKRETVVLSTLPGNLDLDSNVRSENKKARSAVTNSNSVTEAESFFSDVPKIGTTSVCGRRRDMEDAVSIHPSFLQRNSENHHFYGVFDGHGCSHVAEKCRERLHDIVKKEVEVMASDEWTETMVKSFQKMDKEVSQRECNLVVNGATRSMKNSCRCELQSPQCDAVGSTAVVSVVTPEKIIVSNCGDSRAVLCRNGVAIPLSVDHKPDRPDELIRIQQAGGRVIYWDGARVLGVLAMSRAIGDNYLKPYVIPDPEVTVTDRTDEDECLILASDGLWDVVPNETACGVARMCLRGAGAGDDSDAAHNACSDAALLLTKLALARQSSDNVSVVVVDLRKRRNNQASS

[6] = tested on: Arabidopsis thaliana plants; experiment: Dehydration treatment of seedlings in laminar flow hood; type: in vivo; settings: OE plants; 15-d-old seedlings, 12 h of dehydration, scored 3-d afterwards
Procedure: 2-weeks-old seedlings grown in MS plates were used for these experiments. Twenty seedlings per genotype (two independent experiments) were submitted to the drying atmosphere of a flow laminar hood for 12 hours (25° C.±1° C., 25%±2% relative humidity), then rehydrated with 25 ml of water. Survival percentage was scored 3 days after rehydration by counting the percentage of plants that had at least four green leaves.

[7] = tested on: RAB18; experiment: Quantitative RT-PCR of ABA-responsive gene RAB18 in OE plants; type: in vivo, Arabidopsis thaliana
Procedure: (§2) ABA treatment, RNA extraction and quantitative RT-PCR amplifications were performed as previously described (Saez et al., 2004).

[8] = tested on: RD29B; experiment: Quantitative RT-PCR of ABA-responsive gene RD29B in OE plants; type: in vivo, Arabidopsis thaliana
Procedure: as §2

[9] = absence of exogenous ABA treatment

| Molecule | survival after drought stress [1] | localization of interaction with PP2CA [2] | stomatal conductance (Gst) and transpiration versus non-transformed Col [3] | water loss under drought stress [4] | binding result [5] | survival after dehydration followed by rehydration [6] | plant growth (rosette radius) during drought ([1]; OE plants, subsequent 5-d after irrigation stopped) | stomatal conductance (Gst) versus PYL4 OE plants [3] | induction of RAB18 after ABA-treatment ([7]; 10 μM ABA for 3 h) | expression of RAB18 up-regulated compared to non-transformed plants [7, 9] [fold] | water-loss kinetics ([4]; 15-d-old seedlings, drying atmosphere of a laminar flow hood) | induction of RD29B after ABA-treatment ([8]; 10 μM ABA for 3 h) | expression of RD29B up-regulated compared to non-transformed plants [8, 9] [fold] |
| --- | --- | --- | --- | --- | --- | --- | --- | --- | --- | --- | --- | --- | --- |
| PYL4: AtPYL4 wild type ABA receptor polypeptide (SEQ ID NO:3, At2g38310) [reference compound] | around 30% | localized mostly to the nucleus | lower Gst and transpiration values than non-transformed Col plants | reduced water loss compared to non-transformed plants |  |  |  |  |  |  |  |  |  |
| PYL4H82R V97A (AtPYL H82 and V97A) (receptor, also called PYL4H82R (found combined with V97A)) MLAVHRPSSAVSDGDSVQIPMMIASFQKRFPSLSRDSTAARFHTHEVGPNQCCSAVIQEISAPISTVWSVVRRFDNPQAYKRFLKSCSVIGGDGDNAGSLRQVHVVSGLPAASSTERLDILDDERHVISFSVVGGDHRLSNYRSVTTLHPSPISGTVVVESYVVDVPPGNTKEETCDFVDVIVRCNLQSLAKIAENTAAESKKKMSL |  |  |  |  | binds | ~25% |  |  |  |  |  |  |  |
| PYL4A194T: AtPYL4 ABA receptor mutant polypeptide with A194T substitution (SEQ ID NO. 60; nucleic acid SEQ ID NO: 55); also over-expressed in plants (protein, listed as Arabidopsis thaliana) MLAVHRPSSAVSDGDSVQIPMMIASFQKRFPSLSRDSTAARFHTHEVGPNQCCSAVIQEISAPISTVWSVVRRFDNPQAYKHFLKSCSVIGGDGDNVGSLRQVHVVSGLPAASSTERLDILDDERHVISFSVVGGDHRLSNYRSVTTLHPSPISGTVVVESYVVDVPPGNTKEETCDFVDVIVRCNLQSLAKITENTAAESKKKMSL | 60-70% | relatively much more abundant in the cytosol compared to PYL4 | lower Gst and transpiration values than non-transformed Col plants | reduced water loss compared to non-transformed Col and PYL4 OE plants |  | approximately 40% | plant growth was reduced in non-transformed Col and PYL4 OE plants compared to PYL4A194T OE plants | lower Gst values than PYL4 OE plants | not higher than in non-transformed plants | 6 | lost less water than non-transformed or PYL4 OE lines | not higher than in non-transformed plants | 23 |
